The data set deals with T1, MORF9 (UniProt Q9LPZ1 75-196, C85S;C187S).
T1 sequence: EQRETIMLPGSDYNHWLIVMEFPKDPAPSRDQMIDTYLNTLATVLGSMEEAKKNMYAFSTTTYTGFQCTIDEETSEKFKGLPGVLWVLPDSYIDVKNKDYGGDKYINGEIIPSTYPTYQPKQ
The experiment in a line: EMSA; MORF9 alone, up to highest concentration; REMSA: 1 nM RNA, 2x buffer is 85 mM Tris, 165 mM HEPES, 200 mM NaCl, 12.5 mM DTT, 0.25 mM EDTA, 1.25 mg/mL heparin, 0.1 mg/mL BSA; 30 min at ambient temperature; 5% polyacrylamide gel; pH not stated. The conditions noted are these: protein: recombinant; tags: N-terminal His-TEV tag cleaved off; label: 5'-Cy5; single strand. In general terms: A gel shift assay detects complexes by their altered migration in electrophoresis.

B1: clpP1_REMSA (clpP1-69942) (ssRNA)
RNA: CAGCAACAGAAGCCCAAGCUCAUGGA
Regarding B1, the binding result is recorded as “no binding”.

B2: rpoA_REMSA (rpoA-78691) (ssRNA)
RNA: AUGUAUUACACGUGCAAAAUCUGAGA
As to B2, the binding result is listed as “no binding”.

These data come from publication PMC8110955, “A synthetic RNA editing factor edits its target site in chloroplasts and bacteria”.
